Series [1] deals with HeLa Kyoto. The series can be described thus: solubility in G1/S (NP-40 vs SDS abundance) (log2 ratio); higher = more soluble. To be noted: cell cycle stage: G1/S.
Series [2] deals with HeLa Kyoto. Nature of the series: melting temperature (median over replicates), in situ; higher = more thermally stable.
Series [3] relates to HeLa Kyoto. The series can be described thus: solubility change mitosis vs G1/S (difference of NP-40 vs SDS log2 ratios) (log2 ratio difference); higher = more soluble in mitosis.
In series [4] the test system is HeLa Kyoto. Nature of the series: thermal stability score vs G1/S (z-score of summed log2 fold changes over temperatures); higher = more thermally stable than in G1/S.
The mark [5] stands for this setting: cell cycle stage: early G1 (4.5 h after nocodazole release).
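Throughout, for melting temperature (median over replicates), in situ: HeLa Kyoto cells synchronized by double thymidine or nocodazole block, proteins quantified by TMT10plex mass spectrometry, three independent biological replicates.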
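Throughout, for solubility change mitosis vs G1/S (difference of NP-40 vs SDS log2 ratios): synchronized HeLa Kyoto cells (double thymidine block for G1/S, nocodazole release for mitosis), protein amounts in NP-40 versus SDS lysates quantified by mass spectrometry, three biological replicates.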
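Throughout, for solubility in G1/S (NP-40 vs SDS abundance): HeLa Kyoto cells arrested at G1/S by double thymidine block, proteins quantified by TMT10plex mass spectrometry in mild NP-40 versus SDS extracts, three biological replicates.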
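Throughout, for thermal stability score vs G1/S (z-score of summed log2 fold changes over temperatures): synchronized HeLa Kyoto cells, proteins quantified by TMT10plex mass spectrometry, three biological replicates, mitosis taken 0.5 h after nocodazole release, G1/S directly after double thymidine block.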

With “MMPMFLTVYLSNNEQHFTEVPVTPETICRDVVDLCKEPGESDCHLAEVWCGSERPVADNERMFDVLQRFGSQRNEVRFFLRHERPPGRDIVSGPRSQDPSLKRNGVKVPGEYRRKENGVNSPRMDLTLAELQEMASRQQQQIEAQQQLLATKEQRLKFLKQQDQRQQQQVAEQEKLKRLKEIAENQEAKLKKVRALKGHVEQKRLSNGKLVEEIEQMNNLFQQKQRELVLAVSKVEELTRQLEMLKNGRIDSHHDNQSAVAELDRLYKELQLRNKLNQEQNAKLQQQRECLNKRNSEVAVMDKRVNELRDRLWKKKAALQQKENLPVSSDGNLPQQAASAPSRVAAVGPYIQSSTMPRMPSRPELLVKPALPDGSLVIQASEGPMKIQTLPNMRSGAASQTKGSKIHPVGPDWSPSNADLFPSQGSASVPQSTGNALDQVDDGEVPLREKEKKVRPFSMFDAVDQSNAPPSFGTLRKNQSSEDILRDAQVANKNVAKVPPPVPTKPKQINLPYFGQTNQPPSDIKPDGSSQQLSTVVPSMGTKPKPAGQQPRVLLSPSIPSVGQDQTLSPGSKQESPPAAAVRPFTPQPSKDTLLPPFRKPQTVAASSIYSMYTQQQAPGKNFQQAVQSALTKTHTRGPHFSSVYGKPVIAAAQNQQQHPENIYSNSQGKPGSPEPETEPVSSVQENHENERIPRPLSPTKLLPFLSNPYRNQSDADLEALRKKLSNAPRPLKKRSSITEPEGPNGPNIQKLLYQRTTIAAMETISVPSYPSKSASVTASSESPVEIQNPYLHVEPEKEVVSLVPESLSPEDVGNASTENSDMPAPSPGLDYEPEGVPDNSPNLQNNPEEPNPEAPHVLDVYLEEYPPYPPPPYPSGEPEGPGEDSVSMRPPEITGQVSLPPGKRTNLRKTGSERIAHGMRVKFNPLALLLDSSLEGEFDLVQRIIYEVDDPSLPNDEGITALHNAVCAGHTEIVKFLVQFGVNVNAADSDGWTPLHCAASCNNVQVCKFLVESGAAVFAMTYSDMQTAADKCEEMEEGYTQCSQFLYGVQEKMGIMNKGVIYALWDYEPQNDDELPMKEGDCMTIIHREDEDEIEWWWARLNDKEGYVPRNLLGLYPRIKPRQRSLA [TP53BP2]”, in the series with HeLa Kyoto [1], the “solubility in G1/S (log2)” value turned out to be 0.0669. Moreover, the melting temperature in the series with HeLa Kyoto [2] (cell cycle stage: G1/S) came to 48.9 °C; in the series with HeLa Kyoto [2] (cell cycle stage: mitosis) it was 48.5 °C. The “solubility change mitosis (log2)” value in the series on HeLa Kyoto [3] is -0.063. The thermal stability score is 0.713 in the series with HeLa Kyoto [4] (setting [5]) and 1.28 in the series with HeLa Kyoto [4] (cell cycle stage: mitosis).

On to “MMPTPVILLKEGTDSSQGIPQLVSNISACQVIAEAVRTTLGPRGMDKLIVDGRGKATISNDGATILKLLDVVHPAAKTLVDIAKSQDAEVGDGTTSVTLLAAEFLKQVKPYVEEGLHPQIIIRAFRTATQLAVNKIKEIAVTVKKADKVEQRKLLEKCAMTALSSKLISQQKAFFAKMVVDAVMMLDDLLQLKMIGIKKVQGGALEDSQLVAGVAFKKTFSYAGFEMQPKKYHNPKIALLNVELELKAEKDNAEIRVHTVEDYQAIVDAEWNILYDKLEKIHHSGAKVVLSKLPIGDVATQYFADRDMFCAGRVPEEDLKRTMMACGGSIQTSVNALSADVLGRCQVFEETQIGGERYNFFTGCPKAKTCTFILRGGAEQFMEETERSLHDAIMIVRRAIKNDSVVAGGGAIEMELSKYLRDYSRTIPGKQQLLIGAYAKALEIIPRQLCDNAGFDATNILNKLRARHAQGGTWYGVDINNEDIADNFEAFVWEPAMVRINALTAASEAACLIVSVDETIKNPRSTVDAPTAAGRGRGRGRPH [CCT7]”, for which the “solubility in G1/S (log2)” value with HeLa Kyoto [1] stood at 0.162. In addition, the figures for the melting temperature with HeLa Kyoto [2] (cell cycle stage: G1/S) and with HeLa Kyoto [2] (cell cycle stage: mitosis) were 54.1 °C and 54.2 °C, respectively. The “solubility change mitosis (log2)” value in the series with HeLa Kyoto [3] is -0.0678. Also, the values for the thermal stability score with HeLa Kyoto [4] (setting [5]) and in the series on HeLa Kyoto [4] (cell cycle stage: mitosis) were -0.684 and -1.22, respectively.

“MNAEPERKFGVVVVGVGRAGSVRMRDLRNPHPSSAFLNLIGFVSRRELGSIDGVQQISLEDALSSQEVEVAYICSESSSHEDYIRQFLNAGKHVLVEYPMTLSLAAAQELWELAEQKGKVLHEEHVELLMEEFAFLKKEVVGKDLLKGSLLFTAGPLEEERFGFPAFSGISRLTWLVSLFGELSLVSATLEERKEDQYMKMTVCLETEKKSPLSWIEEKGPGLKRNRYLSFHFKSGSLENVPNVGVNKNIFLKDQNIFVQKLLGQFSEKELAAEKKRILHCLGLAEEIQKYCCSRK [BLVRA]”: the “solubility in G1/S (log2)” value in the series with HeLa Kyoto [1] was determined as 0.108. Also, the results for the melting temperature with HeLa Kyoto [2] (cell cycle stage: G1/S) and in the series on HeLa Kyoto [2] (cell cycle stage: mitosis) were 54.9 °C and 55 °C, respectively. In addition, the “solubility change mitosis (log2)” value in the series with HeLa Kyoto [3] was -0.0957. Besides, the values for the thermal stability score in the series with HeLa Kyoto [4] (setting [5]) and in the series on HeLa Kyoto [4] (cell cycle stage: mitosis) were -0.499 and -0.397, respectively.

With “MNAGPGCEPCTKRPRWGAATTSPAASDARSFPSRQRRVLDPKDAHVQFRVPPSSPACVPGRAGQHRGSATSLVFKQKTITSWMDTKGIKTAESESLDSKENNNTRIESMMSSVQKDNFYQHNVEKLENVSQLSLDKSPTEKSTQYLNQHQTAAMCKWQNEGKHTEQLLESEPQTVTLVPEQFSNANIDRSPQNDDHSDTDSEENRDNQQFLTTVKLANAKQTTEDEQAREAKSHQKCSKSCDPGEDCASCQQDEIDVVPESPLSDVGSEDVGTGPKNDNKLTRQESCLGNSPPFEKESEPESPMDVDNSKNSCQDSEADEETSPGFDEQEDGSSSQTANKPSRFQARDADIEFRKRYSTKGGEVRLHFQFEGGESRTGMNDLNAKLPGNISSLNVECRNSKQHGKKDSKITDHFMRLPKAEDRRKEQWETKHQRTERKIPKYVPPHLSPDKKWLGTPIEEMRRMPRCGIRLPLLRPSANHTVTIRVDLLRAGEVPKPFPTHYKDLWDNKHVKMPCSEQNLYPVEDENGERTAGSRWELIQTALLNKFTRPQNLKDAILKYNVAYSKKWDFTALIDFWDKVLEEAEAQHLYQSILPDMVKIALCLPNICTQPIPLLKQKMNHSITMSQEQIASLLANAFFCTFPRRNAKMKSEYSSYPDINFNRLFEGRSSRKPEKLKTLFCYFRRVTEKKPTGLVTFTRQSLEDFPEWERCEKPLTRLHVTYEGTIEENGQGMLQVDFANRFVGGGVTSAGLVQEEIRFLINPELIISRLFTEVLDHNECLIITGTEQYSEYTGYAETYRWSRSHEDGSERDDWQRRCTEIVAIDALHFRRYLDQFVPEKMRRELNKAYCGFLRPGVSSENLSAVATGNWGCGAFGGDARLKALIQILAAAAAERDVVYFTFGDSELMRDIYSMHIFLTERKLTVGDVYKLLLRYYNEECRNCSTPGPDIKLYPFIYHAVESCAETADHSGQRTGT [PARG]”, in the series with HeLa Kyoto [1], the “solubility in G1/S (log2)” value is -0.159. The melting temperature turned out to be 50.8 °C in the series with HeLa Kyoto [2] (cell cycle stage: G1/S) and 50 °C in the series on HeLa Kyoto [2] (cell cycle stage: mitosis). Further, the “solubility change mitosis (log2)” value with HeLa Kyoto [3] is -0.0937. In addition, the thermal stability score with HeLa Kyoto [4] (setting [5]) is -0.493; in the series with HeLa Kyoto [4] (cell cycle stage: mitosis) it was -0.304.
